# Test results from publication PMC6090015, “Identification and characterization of a novel β-D-galactosidase that releases pyruvylated galactose” (Scientific Reports, 2018).
# Experiments:
# [1] = target: T1, ORF1119 (PvGal-ase) (Bacillus sp. HMA207, UniProt Z9IVQ1LJN5, E163A); test: X-ray crystal structure, […] Å; type: binding; conditions: co-crystallised with pNP-β-D-PvGal, pNP lost during crystal growth; active site; phosphate-citrate pH 5.2
# T1 construct: full length 469 aa, no signal peptide; pET-32b, N-terminal His5 tag, E. coli BL21(DE3)CodonPlus delta-lacZ, Ni-purified
# [2] = system: T2, CC1(C(=O)O)OC[C@H]2O[C@@H](Oc3ccc([N+](=O)[O-])cc3)[C@H](O)[C@@H](O)[C@H]2O1; test: discontinuous pNP release, A405; type: biochemical, Bacillus sp. HMA207; conditions: 50 mM HEPES-NaOH pH 7.5, 37 °C
# T2 construct: full length 469 aa, no signal peptide; pET-32b, N-terminal His5 tag, E. coli BL21(DE3)CodonPlus delta-lacZ, Ni-purified
# Description: (§1) discontinuous pNP release, A405 on ORF1119 (PvGal-ase)
# [3] = system: T3, C[C@H]1O[C@@H](Oc2ccc([N+](=O)[O-])cc2)[C@H](O)[C@@H](O)[C@H]1O; test: discontinuous pNP release, A405; type: biochemical, Bacillus sp. HMA207; conditions: 50 mM HEPES-NaOH pH 7.5
# T3 construct: full length 469 aa, no signal peptide; pET-32b, N-terminal His5 tag, E. coli BL21(DE3)CodonPlus delta-lacZ, Ni-purified
# Description: as §1
# [4] = system: T4, O=[N+]([O-])c1ccc(O[C@@H]2O[C@H](CO)[C@@H](O)[C@H](O)[C@H]2O)cc1; test: discontinuous pNP release, A405; type: biochemical, Bacillus sp. HMA207; conditions: 50 mM HEPES-NaOH pH 7.5
# T4 construct: full length 469 aa, no signal peptide; pET-32b, N-terminal His5 tag, E. coli BL21(DE3)CodonPlus delta-lacZ, Ni-purified
# Description: as §1
# [5] = system: T5, O=[N+]([O-])c1ccc(O[C@@H]2O[C@H](CO)[C@H](O)[C@H](O)[C@H]2O)cc1; test: discontinuous pNP release, A405; type: biochemical, Bacillus sp. HMA207; conditions: 50 mM HEPES-NaOH pH 7.5
# T5 construct: full length 469 aa, no signal peptide; pET-32b, N-terminal His5 tag, E. coli BL21(DE3)CodonPlus delta-lacZ, Ni-purified
# Description: as §1
compound,measurement,setting,value
C[C@@]1(C(=O)O)OC[C@H]2OC(O)[C@H](O)[C@@H](O)[C@H]2O1 (stereo partly shown) [PvGal],"X-ray crystal structure, 2.45 Å",[1],"In the complex structure, clear electron density is observed for the PvGal ligand"
ORF1119 (PvGal-ase) (Bacillus sp. HMA207),Km,[2]; 37.0 °C,810 ± 140 µM
same,kcat,[2]; 37.0 °C,5.2 ± 0.2 s⁻¹
same,kcat/Km,[2]; 37.0 °C,6300 M⁻¹ s⁻¹
same,Km,[3],1900 ± 100 µM
same,kcat,[3],1.6 ± 0.02 s⁻¹
same,kcat/Km,[3],830 M⁻¹ s⁻¹
same,Km,[4],7400 ± 400 µM
same,kcat,[4],0.10 ± 0.002 s⁻¹
same,kcat/Km,[4],14 M⁻¹ s⁻¹
same,Km,[5],3300 ± 400 µM
same,kcat,[5],0.20 ± 0.005 s⁻¹
same,kcat/Km,[5],60 M⁻¹ s⁻¹
ORF1119 (PvGal-ase) (Bacillus sp. HMA207; K434A),Km,[2],730 ± 120 µM
same,kcat,[2],8.8 ± 0.2 s⁻¹
same,kcat/Km,[2],12000 M⁻¹ s⁻¹
ORF1119 (PvGal-ase) (Bacillus sp. HMA207; N430A),Km,[2],900 ± 160 µM
same,kcat,[2],7.0 ± 0.2 s⁻¹
same,kcat/Km,[2],7700 M⁻¹ s⁻¹
ORF1119 (PvGal-ase) (Bacillus sp. HMA207; N430Y),Km,[2],370 ± 80 µM
same,kcat,[2],7.7 ± 0.2 s⁻¹
same,kcat/Km,[2],21000 M⁻¹ s⁻¹
ORF1119 (PvGal-ase) (Bacillus sp. HMA207; S427A),Km,[2],1920 ± 450 µM
same,kcat,[2],4.4 ± 0.3 s⁻¹
same,kcat/Km,[2],2300 M⁻¹ s⁻¹
ORF1119 (PvGal-ase) (Bacillus sp. HMA207; S427E),Km,[3],470 ± 60 µM
same,kcat,[3],0.91 ± 0.02 s⁻¹
same,kcat/Km,[3],2000 M⁻¹ s⁻¹
same,Km,[4],460 ± 90 µM
same,kcat,[4],0.05 ± 0.001 s⁻¹
same,kcat/Km,[4],98 M⁻¹ s⁻¹
same,Km,[5],890 ± 90 µM
same,kcat,[5],0.13 ± 0.002 s⁻¹
same,kcat/Km,[5],149 M⁻¹ s⁻¹
ORF1119 (PvGal-ase) (Bacillus sp. HMA207; Y436A),Km,[2],800 ± 180 µM
same,kcat,[2],0.68 ± 0.03 s⁻¹
same,kcat/Km,[2],860 M⁻¹ s⁻¹
ORF1119 (PvGal-ase) (Bacillus sp. HMA207; Y436F),Km,[2],530 ± 90 µM
same,kcat,[2],6.5 ± 0.2 s⁻¹
same,kcat/Km,[2],12000 M⁻¹ s⁻¹
